The target in the experiment is Avi-tagged human eIF4A1 full length (human) (UniProt P60842). In words: SPR. (In general: Surface plasmon resonance follows binding to a sensor surface in real time, without labels.)
Avi-tagged human eIF4A1 full length (human), sequence (P60842 whole entry): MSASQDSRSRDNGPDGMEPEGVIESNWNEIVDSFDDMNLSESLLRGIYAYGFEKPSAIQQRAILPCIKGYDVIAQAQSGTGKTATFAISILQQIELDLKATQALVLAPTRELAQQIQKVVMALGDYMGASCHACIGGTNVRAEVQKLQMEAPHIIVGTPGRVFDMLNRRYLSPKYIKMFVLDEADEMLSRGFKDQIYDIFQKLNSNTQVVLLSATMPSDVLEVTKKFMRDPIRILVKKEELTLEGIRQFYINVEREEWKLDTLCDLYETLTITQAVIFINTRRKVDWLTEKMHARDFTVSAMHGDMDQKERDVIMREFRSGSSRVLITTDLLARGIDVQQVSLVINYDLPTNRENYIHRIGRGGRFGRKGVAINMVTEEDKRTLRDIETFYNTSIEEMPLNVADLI

Consider “eIF4G-MIF (middle domain of eIF4G, residues 712-1011) (domain or fragment)”, for which the fold increase in binding affinity with hippuristanol against no compound was determined as 5 fold.

For the origin of these results see publication doi:10.1101/2025.03.24.644895.
